Data as given in the supplement of paper PMC9170038.

System: MS2 coat protein
Assay: apparent KD of MS2 coat protein; designed switch direction (-1 OFF switch, 1 ON switch): -1; higher = weaker reporter binding
Outline: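 Normalised cluster fluorescence was curve-fitted, and each design's median over clusters is its apparent KD. Before this, SNAP-549-labelled MS2 coat protein was titrated from 0.7 or 1.5 nM, doubling to 3 µM, over RNA switches transcribed on Illumina chips by stalled E. coli RNA polymerase. Titrations had no input, 200 uM small-molecule ligand, or an oligonucleotide input, and steps lasted 0.8–1.5 h (lowest) to 10–20 min (highest).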

[1] = input ligand: microRNA oligo, concentration not stated
[2] = Eterna round: R95, input ligand: FMN 200 uM
[3] = Eterna round: R95, input ligand: microRNA oligo, concentration not stated
[4] = Eterna round: R95, input ligand: none

Row | Sequence | apparent KD of MS2 coat protein (input ligand: FMN 200 uM) | apparent KD of MS2 coat protein [1] | apparent KD of MS2 coat protein (input ligand: none) | apparent KD of MS2 coat protein [2] | apparent KD of MS2 coat protein [3] | apparent KD of MS2 coat protein [4]
1 | GCGGAGUAUGUAGGAUAUCGGUCAGUUUCUGAUCGAGAAGGACAUGAGGAUCACCCAUGUAAAUUCCUCGCUUUGUGAGGCCGC [JL ENG1 3.65] (Eterna round: R96, puzzle: Exclusion NG 1) | 21.6 nM | 12.8 nM | 17.1 nM | – | – | –
2 | AUUAUACAUGUAGGAUAUCUGCACGAUUAGUGCAGAGAAGGACAUGAGGAUCACCCAUGUAGAUCAAUAAUAAUUAAUUUAAUU [ENG1/6-B1] (Eterna round: R96, puzzle: Exclusion NG 1) | 500 nM | 122 nM | 156 nM | – | – | –
3 | AACCUGAGGCUUUGCUUUAGGUGAACAUGAGGAUCACCCAUGUAGGAUAUGGUAGGCUUUGCUUACCAGAAGGACAUAUUAAUU [JL ENG3 1.12] (Eterna round: R96, puzzle: Exclusion NG 3) | – | 30.6 nM | – | – | – | –
4 | GGUUGACAUGAGGAUCACCCAUGUGAGGAUAUGCGAGAGAAAAAAGUGAGGAAGUUUUGCAGAAGGCGCUGUCG [salish99-ex1_r3_007] (puzzle: Exclusion 1) | – | – | – | 43.5 nM | 87.5 nM | 56 nM
5 | GCCUCUCAUGUGAGGAUAUCCGGACUAUACAGACAGGAGAAGGCACAUGAGGAUCACCCAUGUCACGCACACUU [BmEX4 B.5] (Eterna round: R97, puzzle: Brourd's mod of Exclusion 4) | 27.1 nM | – | 189 nM | – | – | –
6 | CCGGAAAGGGAGGAUAUAGGAGUCGAUAGACACCUAGAAGGCCUGACAUGAGGAUCACCCAUGUGUCCUACCGG [Fiskers Ex 6 - 91] (puzzle: Exclusion 6) | – | – | – | – | 13.7 nM | –
7 | UGCAUGCUAGGAUAUACGGGACAUUAGGGUUUGUCGUGUGGACAUGAGGAUCACCCAUGUAGAAGGAGCGUGCU [Mod2 of JL-ex2-2.15 mat747 mod] (puzzle: Exclusion 2) | – | – | – | – | 43.6 nM | –
8 | GGUCGACAUGAGGAUCACCCAUGUCAGGAUAUCGUCACUGGAGCCUCGGCUCCAGUGACGAGAAGGGACAUAAU [E1/14-A2] (Eterna round: R97, puzzle: Exclusion 1) | 23.4 nM | – | 31.4 nM | – | – | –
9 | CUUCUGUGAGGAUAUGUGAACCCGUGCCGAAAGGAUGGGAAACAGAAGGCACAUGAGGAUCACCCAUGUAAAAU [Isergeat] (puzzle: Exclusion 4) | – | – | – | – | 29.1 nM | –
10 | UGUACUAUGCGAGCUGACUUGCGUAGUGCAGCAAGUGAAACAUGAGGAUCACCCAUGUCCUCAUUUGCUCGUCUUAU [SL-sv3-2.01 JL mod] (puzzle: Sensor v3, turn-off variant 2) | – | – | – | 23.3 nM | 337 nM | 22 nM
11 | CCGCUACAUGAGGAUCACCCAUGUCAGGAUAUCGUACGUUCGUCGAAAGACGAUCGUACGAGAAGGGUGAGCGG [Eli x1 4.38] (Eterna round: R97, puzzle: Exclusion 1) | 138 nM | – | 187 nM | – | – | –
12 | GAAAACGCAGAGGAUAUUUCAGAUCAAAGCUGCAAAGAAGGCUGCACAUGAGGAUCACCCAUGUGGUCUUCAAG [Mat - Exclusion 6 - JL Mod - D9] (Eterna round: R97, puzzle: Exclusion 6) | 152 nM | – | 29 nM | – | – | –
13 | GCUGGACGAGGAUAUGCAAUCGUGCUUCGGCACGUAAGGUCACAUGAGGAUCACCCAUGUAGAAGGUGUCCAGC [E2/4-B2] (Eterna round: R97, puzzle: Exclusion 2) | 31.1 nM | – | 20.5 nM | – | – | –
14 | AGCUGUGGCCGAGGAUAUACAUGAGGAUCACCCAUGUUACAUAAUUAAGCCGGAGAACCGGCUCCGUAGAAGGCGGUCUCAGCA [Eli eng2 - 003] (Eterna round: R96, puzzle: Exclusion NG 2) | 12.6 nM | 9.39 nM | 13.7 nM | – | – | –
15 | UUAUGUAAUGUAGGAUAUCGGUCAGUUUCUGAUCGAGAAGGACAUGAGGAUCACCCAUGUAAGGCUACCGGUUUCUGGUGGCCU [JL ENG1 3.51] (Eterna round: R96, puzzle: Exclusion NG 1) | 137 nM | 20.7 nM | 28.5 nM | – | – | –
16 | ACAAGCUUUUUGCAUGUUAGGUUUGUUGCUUCGUAUGUAACAUGAGGAUCACCCAUGUAUUACUGAUGUCGUCGUUU [JR_SV3TOV2_Sub089] (puzzle: Sensor v3, turn-off variant 2) | – | – | – | 18.4 nM | 17.2 nM | 18.2 nM
17 | CCAGCAAUUGUCAGGAUAUGCUGGUCCUUGGAUCAGCAGAAGGGACAUGAGGAUCACCCAUGUGGAAAAGCUGG [Eli bmx4 4.64] (Eterna round: R97, puzzle: Brourd's mod of Exclusion 4) | 231 nM | – | 54.7 nM | – | – | –
